# Data: PMC4885022, “Structural Analysis of dsRNA Binding to Anti-viral Pattern Recognition Receptors LGP2 and MDA5” (Molecular Cell, 2016)
# T1: hLGP2 (Homo sapiens, UniProt Q96C10)
# T1 construct: gene DHX58; construct not described in main text
# T1 sequence (Q96C10 1-678): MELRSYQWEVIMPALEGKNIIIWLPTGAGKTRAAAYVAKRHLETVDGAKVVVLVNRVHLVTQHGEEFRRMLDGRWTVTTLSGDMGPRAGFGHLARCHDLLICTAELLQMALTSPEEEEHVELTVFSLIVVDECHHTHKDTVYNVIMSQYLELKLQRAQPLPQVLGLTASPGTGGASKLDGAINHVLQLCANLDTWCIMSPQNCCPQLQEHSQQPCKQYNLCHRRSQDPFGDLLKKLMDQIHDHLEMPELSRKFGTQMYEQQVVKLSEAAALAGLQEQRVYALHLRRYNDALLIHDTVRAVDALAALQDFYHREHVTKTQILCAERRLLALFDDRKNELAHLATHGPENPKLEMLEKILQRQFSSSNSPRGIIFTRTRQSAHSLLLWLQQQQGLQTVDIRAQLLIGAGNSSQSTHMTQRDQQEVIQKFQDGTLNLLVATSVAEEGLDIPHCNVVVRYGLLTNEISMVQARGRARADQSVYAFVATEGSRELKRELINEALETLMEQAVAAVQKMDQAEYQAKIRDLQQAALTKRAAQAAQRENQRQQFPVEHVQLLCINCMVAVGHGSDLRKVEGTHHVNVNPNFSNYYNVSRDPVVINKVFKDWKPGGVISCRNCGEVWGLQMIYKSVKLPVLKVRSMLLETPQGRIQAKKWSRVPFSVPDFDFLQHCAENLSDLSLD
# T2: chLGP2 (chicken, UniProt G0YYQ5 1-674)
# T2 sequence: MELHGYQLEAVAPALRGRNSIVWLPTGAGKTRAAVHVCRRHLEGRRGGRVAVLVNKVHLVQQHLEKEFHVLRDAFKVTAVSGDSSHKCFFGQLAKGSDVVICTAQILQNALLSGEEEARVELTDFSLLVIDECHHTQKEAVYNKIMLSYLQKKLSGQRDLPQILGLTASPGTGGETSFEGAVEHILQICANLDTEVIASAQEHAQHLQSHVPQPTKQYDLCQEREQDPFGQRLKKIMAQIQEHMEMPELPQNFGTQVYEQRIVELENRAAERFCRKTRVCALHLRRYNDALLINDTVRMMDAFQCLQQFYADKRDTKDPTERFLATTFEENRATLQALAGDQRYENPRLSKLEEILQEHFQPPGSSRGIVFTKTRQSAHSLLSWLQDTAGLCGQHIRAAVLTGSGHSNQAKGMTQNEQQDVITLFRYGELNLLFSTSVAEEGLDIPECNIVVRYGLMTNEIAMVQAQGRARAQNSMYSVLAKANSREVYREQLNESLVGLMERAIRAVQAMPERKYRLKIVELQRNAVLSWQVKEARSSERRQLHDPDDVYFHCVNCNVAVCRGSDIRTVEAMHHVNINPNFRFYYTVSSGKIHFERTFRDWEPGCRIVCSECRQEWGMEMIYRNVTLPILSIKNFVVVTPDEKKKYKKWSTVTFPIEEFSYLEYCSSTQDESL
# T3: hRIG-I (human, UniProt O95786 1-925)
# T3 sequence: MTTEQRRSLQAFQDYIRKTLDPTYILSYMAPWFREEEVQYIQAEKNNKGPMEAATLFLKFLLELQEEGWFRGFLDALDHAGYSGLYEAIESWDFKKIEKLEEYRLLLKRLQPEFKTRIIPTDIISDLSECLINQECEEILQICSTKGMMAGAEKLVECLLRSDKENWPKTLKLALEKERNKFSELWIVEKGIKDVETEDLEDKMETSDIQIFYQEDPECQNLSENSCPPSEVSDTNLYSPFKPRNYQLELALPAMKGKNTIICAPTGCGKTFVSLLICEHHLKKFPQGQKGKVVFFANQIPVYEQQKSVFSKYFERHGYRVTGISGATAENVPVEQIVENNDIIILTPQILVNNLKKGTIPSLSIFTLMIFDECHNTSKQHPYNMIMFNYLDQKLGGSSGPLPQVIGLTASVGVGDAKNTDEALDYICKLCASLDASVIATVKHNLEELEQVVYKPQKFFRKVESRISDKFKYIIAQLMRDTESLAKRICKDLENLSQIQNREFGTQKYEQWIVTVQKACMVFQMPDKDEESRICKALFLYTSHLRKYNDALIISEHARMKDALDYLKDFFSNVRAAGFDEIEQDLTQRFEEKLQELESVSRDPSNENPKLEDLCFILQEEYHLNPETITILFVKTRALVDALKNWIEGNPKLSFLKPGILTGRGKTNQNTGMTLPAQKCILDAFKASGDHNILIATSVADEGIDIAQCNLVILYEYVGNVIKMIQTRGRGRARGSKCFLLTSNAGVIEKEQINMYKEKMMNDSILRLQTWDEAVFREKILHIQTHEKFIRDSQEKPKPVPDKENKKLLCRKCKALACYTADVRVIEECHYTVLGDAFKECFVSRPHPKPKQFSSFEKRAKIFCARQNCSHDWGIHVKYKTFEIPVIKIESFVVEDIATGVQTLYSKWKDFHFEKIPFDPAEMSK
# Legend:
# hLGP2 = target: T1, hLGP2; assay: malachite green ATPase assay; assay type: biochemical; conditions: dsRNA-dependent
# chLGP2 [1] = target: T2, chLGP2; assay: fluorescence anisotropy; Fluorescence anisotropy: 5'-FAM 12-mer annealed to unlabeled complement, protein titrated, ex 495 / em 515 nm, fit with Hill coefficient (n=1 for RIG-I); buffer, salt, pH and temperature not in the material; conditions: protein: recombinant; tags: SUMO fusion; label: 5'-FAM on one strand; 5' overhang
# chLGP2 [2] = target: T2, chLGP2; assay: fluorescence anisotropy; affinity independent of bound nucleotide; Fluorescence anisotropy: 5'-FAM 12-mer annealed to unlabeled complement, protein titrated, ex 495 / em 515 nm, fit with Hill coefficient (n=1 for RIG-I); buffer, salt, pH and temperature not in the material; conditions: protein: recombinant; tags: SUMO fusion; label: 5'-FAM on one strand; blunt
# chLGP2 [3] = target: T2, chLGP2; assay: crystal structure; ADP:AlF4, Mg2+; Fluorescence anisotropy: 5'-FAM 12-mer annealed to unlabeled complement, protein titrated, ex 495 / em 515 nm, fit with Hill coefficient (n=1 for RIG-I); buffer, salt, pH and temperature not in the material; conditions: protein: recombinant, tags: SUMO fusion
# chLGP2 [4] = target: T2, chLGP2; assay: crystal structure; no nucleotide; Fluorescence anisotropy: 5'-FAM 12-mer annealed to unlabeled complement, protein titrated, ex 495 / em 515 nm, fit with Hill coefficient (n=1 for RIG-I); buffer, salt, pH and temperature not in the material; conditions: protein: recombinant; tags: SUMO fusion; 2 copies of self-complementary strand
# hRIG-I = target: T3, hRIG-I; assay: fluorescence anisotropy; ADP:AlF4; Fluorescence anisotropy: 5'-FAM 12-mer annealed to unlabeled complement, protein titrated, ex 495 / em 515 nm, fit with Hill coefficient (n=1 for RIG-I); buffer, salt, pH and temperature not in the material; conditions: protein: recombinant; label: 5'-FAM on one strand; blunt
# chLGP2 [5] = target: T2, chLGP2; assay: fluorescence anisotropy; same affinity as 5'OH; Fluorescence anisotropy: 5'-FAM 12-mer annealed to unlabeled complement, protein titrated, ex 495 / em 515 nm, fit with Hill coefficient (n=1 for RIG-I); buffer, salt, pH and temperature not in the material; conditions: protein: recombinant; tags: SUMO fusion; label: 5'-FAM on one strand; blunt
# [6] = blunt, 2 copies of self-complementary strand
molecule,measurement,setting,value
Nc1ncnc2c1ncn2[C@@H]1O[C@H](COP(=O)(O)OP(=O)(O)OP(=O)(O)O)[C@@H](O)[C@H]1O [ATP],malachite green ATPase assay,hLGP2,both chLGP2 and hLGP2 ATPase activity is strictly dsRNA dependent
5' overhang dsRNA (anisotropy) (dsRNA) RNA 1: AACCGGUCACGC RNA 2: AAGCGUGACCGG,binding signal,chLGP2 [1],~2 fold lower affinity than blunt end
5'OH 12-mer blunt dsRNA (anisotropy) (dsRNA) RNA 1: GGGCUCCACAUG RNA 2: CAUGUGGAGCCC,binding result,chLGP2 [2],binds
"5'p 10-mer palindromic dsRNA (dsRNA, 5' monophosphate) RNA 1: GGUACGUACC RNA 2: GGUACGUACC",binding result,chLGP2 [3]; [6],binds
"GGAGCGUGCCGUACGGCACGCUCCGG (structured_RNA, 5' triphosphate) [5'ppp 26-mer hairpin with 3' GG overhang]",binding result,"chLGP2 [3]; hairpin, 3' overhang 2 nt (GG)",binds
"5'ppp 10-mer palindromic dsRNA (dsRNA, 5' triphosphate) RNA 1: GGUACGUACC RNA 2: GGUACGUACC",binding result,chLGP2 [3]; [6],binds
"5'p 12-mer palindromic dsRNA (dsRNA, 5' monophosphate) RNA 1: GGUAGCGCUACC RNA 2: GGUAGCGCUACC",binding result,chLGP2 [4],binds
"5'ppp 12-mer blunt dsRNA (anisotropy) (dsRNA, 5' triphosphate) RNA 1: GGGCUCCACAUG RNA 2: CAUGUGGAGCCC",Kd,hRIG-I,~1 nM
same,binding result,chLGP2 [5],binds
